Data: patent US20160347847A1 (AGENUS, published 2016)
Positions count from the first letter of the chain named. Blank lines part the entries; values can stand above or below the binder they belong to.

Legend:
P115A = target: T1, P115A; assay: flow cytometry on 1624-5 cells expressing the human OX40 alanine mutant; pab1928 at 1.1 and 0.4 µg/ml
T1 construct: also called human OX40 alanine mutant P115A on 1624-5 cells
T1 receptor chain: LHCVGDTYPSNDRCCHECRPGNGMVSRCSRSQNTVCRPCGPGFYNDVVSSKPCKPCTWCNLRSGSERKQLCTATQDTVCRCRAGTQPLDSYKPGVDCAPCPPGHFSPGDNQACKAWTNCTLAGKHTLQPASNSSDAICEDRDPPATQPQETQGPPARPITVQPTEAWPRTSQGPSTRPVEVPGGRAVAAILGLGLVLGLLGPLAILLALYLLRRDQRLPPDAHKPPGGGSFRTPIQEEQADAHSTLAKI
Procedure: (§1) This anti-OX40 antibody non-reactive cell population was subjected to a final, single-cell sorting step. […] The polyclonal anti-OX40 antibody (AF3388, R&D systems) conjugated with APC was diluted at 1:2000. Fc receptor block (1:200; BD Cat no. 553142) was added, and the samples were incubated for 20 minutes at 4° C. […] The cells were then washed and acquired using a flow cytometer (BD Biosciences).

L88A = target: T2, L88A; assay: as above
T2 construct: also called human OX40 alanine mutant L88A on 1624-5 cells
T2 receptor chain: T1 receptor chain with L88A, A115P
Procedure: as §1

W58A = target: T3, W58A; assay: as above
T3 construct: also called human OX40 alanine mutant W58A on 1624-5 cells
T3 receptor chain: T1 receptor chain with W58A, A115P
Procedure: as §1

R80A = target: T4, R80A; assay: as above
T4 construct: also called human OX40 alanine mutant R80A on 1624-5 cells
T4 receptor chain: T1 receptor chain with R80A, A115P
Procedure: as §1

N60A = target: T5, N60A; assay: as above
T5 construct: also called human OX40 alanine mutant N60A on 1624-5 cells
T5 receptor chain: T1 receptor chain with N60A, A115P
Procedure: as §1

R62A = target: T6, R62A; assay: as above
T6 construct: also called human OX40 alanine mutant R62A on 1624-5 cells
T6 receptor chain: T1 receptor chain with R62A, A115P
Procedure: as §1

P99A = target: T7, P99A; assay: as above
T7 construct: also called human OX40 alanine mutant P99A on 1624-5 cells
T7 receptor chain: T1 receptor chain with P99A, A115P
Procedure: as §1

P93A = target: T8, P93A; assay: as above
T8 construct: also called human OX40 alanine mutant P93A on 1624-5 cells
T8 receptor chain: T1 receptor chain with P93A, A115P
Procedure: as §1

[1] = target: T9, FcγRIIA with the high affinity 131 H/H polymorphism on Jurkat NFAT-luciferase reporter cells (UniProt P12318 34-317, limits assumed); assay: cell-based or functional assay
T9 sequence (looked up): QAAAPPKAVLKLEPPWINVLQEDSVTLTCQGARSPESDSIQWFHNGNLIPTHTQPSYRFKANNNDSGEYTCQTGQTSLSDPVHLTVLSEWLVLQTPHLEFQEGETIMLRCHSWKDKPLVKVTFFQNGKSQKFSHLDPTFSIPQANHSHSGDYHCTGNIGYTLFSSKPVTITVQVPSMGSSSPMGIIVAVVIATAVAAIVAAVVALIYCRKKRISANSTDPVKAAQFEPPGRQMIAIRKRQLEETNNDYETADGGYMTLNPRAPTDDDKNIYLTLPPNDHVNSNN

binding result (P115A): binds
binding result (L88A): binds
binding result (W58A): no binding (tested: 1.1 µg/ml)
binding result (R80A): binds
binding result (N60A): binds
binding result (R62A): binds
binding result (P99A): binds
binding result (P93A): binds
B1: pab1928 (antibody, human IgG1, V domains shown)
VH: QVQLVQSGSELKKPGASVKVSCKASGYTFTDYSMHWVRQAPGQGLKWMGWINTETGEPTYADDFKGRFVFSLDTSVSTAYLQISSLKAEDTAVYYCANPYYDYVSYYAMDYWGQGTTVTVSS
VL: DIQMTQSPSSLSASVGDRVTITCKASQDVSTAVAWYQQKPGKAPKLLIYSASYLYTGVPSRFSGSGSGTDFTFTISSLQPEDIATYYCQQHYSTPRTFGQGTKLEIKR
notes: also called made from the variable regions of Hu106-122 (US 2013/0280275)

EC50 (read off the curve) [1]: ~1 nM
B2: pab2193-1 (antibody, human IgG2, kappa)
heavy: EVQLVESGGGLVQPGGSLKLSCAASGFTFSGSAMHWVRQASGKGLEWVGRIRSKANSYATAYAASVKGRFTISRDDSKNTAYLQMNSLKTEDTAVYYCTSGIYDSSGYDYWGQGTLVTVSSASTKGPSVFPLAPCSRSTSESTAALGCLVKDYFPEPVTVSWNSGALTSGVHTFPAVLQSSGLYSLSSVVTVPSSNFGTQTYTCNVDHKPSNTKVDKTVERKCCVECPPCPAPPVAGPSVFLFPPKPKDTLMISRTPEVTCVVVDVSHEDPEVQFNWYVDGVEVHNAKTKPREEQFNSTFRVVSVLTVVHQDWLNGKEYKCKVSNKGLPAPIEKTISKTKGQPREPQVYTLPPSREEMTKNQVSLTCLVKGFYPSDIAVEWESNGQPENNYKTTPPMLDSDGSFFLYSKLTVDKSRWQQGNVFSCSVMHEALHNHYTQKSLSLSPG
light: not shown
